Test results: US11266675

Molecular target: Heat shock cognate protein 70 (Hsc70) (UniProt P11142)
Sequence (P11142 2-646): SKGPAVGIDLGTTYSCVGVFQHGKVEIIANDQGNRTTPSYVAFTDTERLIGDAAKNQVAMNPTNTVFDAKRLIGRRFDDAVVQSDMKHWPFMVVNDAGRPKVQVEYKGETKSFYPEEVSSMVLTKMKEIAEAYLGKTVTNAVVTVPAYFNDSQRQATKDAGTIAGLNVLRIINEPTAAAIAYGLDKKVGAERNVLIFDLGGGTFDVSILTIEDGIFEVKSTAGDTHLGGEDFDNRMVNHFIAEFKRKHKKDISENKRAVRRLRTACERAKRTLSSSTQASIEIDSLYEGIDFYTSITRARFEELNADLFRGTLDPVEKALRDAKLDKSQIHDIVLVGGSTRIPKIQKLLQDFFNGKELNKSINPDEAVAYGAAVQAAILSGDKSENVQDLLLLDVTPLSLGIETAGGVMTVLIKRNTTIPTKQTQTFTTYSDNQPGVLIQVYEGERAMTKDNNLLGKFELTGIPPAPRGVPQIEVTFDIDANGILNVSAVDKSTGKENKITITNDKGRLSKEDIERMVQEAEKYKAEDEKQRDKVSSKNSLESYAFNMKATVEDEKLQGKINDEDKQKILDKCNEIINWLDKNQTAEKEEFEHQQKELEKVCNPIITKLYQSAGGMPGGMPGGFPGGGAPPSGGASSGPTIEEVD

recombinant His-tagged 2A^pro (2A protease of EV-A71)
cleavage of eIF4G by recombinant 2A^pro in vitro (immunoblot): the cleaved eIF4G was up-regulated in Hsc70 overexpressed cells, indicating an increase of 2A^pro proteolytic activity upon increased Hsc70 level
